Reference: patent publication US9309303B2, “Complexation of fatty acid-conjugated molecules with albumin” (The University of the Sciences in Philadelphia, priority 2007, dated 2016)
Ends that are not written are not given here. fluorescein = fluorescein conjugated to the primary amine of the Lys side chain through an MHS ester

What was measured:
[1] = tested on: HeLa cells; assay: transfection of HeLa cells with peptides in the presence of HSA; type: cell-based; details: 250 pmol peptide, 250 pmol HSA
Procedure: Fatty acid-conjugated faTraF peptides and non-conjugated faTraE peptides (250 pmol) were added to separate batches of HeLa cells (24-well plate with 250 μl of EMEM medium). 250 Pmol of HSA was added to the incubation of some wells, but not others. Cells incubated in the presence of HSA and the fatty-acid conjugated peptides were transfected.

[2] = esterase assay, p-nitrophenyl acetate hydrolysis; type: biochemical; details: 5 μM p-nitrophenyl acetate, 40 μg protein, pH 7.4, 37° C., 390 nm
Procedure: The reaction of p-nitrophenyl acetate hydrolysis-mediated by rHSA and RGD-rHSA was assessed spectrophotometrically at 390 nm by monitoring the appearance of p-nitrophenol. The reaction mixtures contained 5 μM p-nitrophenyl acetate and 40 μg protein in 67 mM phosphate buffer (pH 7.4). Reactions were performed at 37° C.

[3] = target: T1, αvβ3 integrin (Homo sapiens, UniProt P05106+P06756); assay: αvβ3 integrin-binding assay (co-immunoprecipitation / Ni2+ pull-down, Western blotting); details: co-immunoprecipitation and Western blotting
T1 construct: 300 μg MDA-MD-435S (αvβ3 positive) cell extract; endogenous in cells; host or cells: MDA-MB-435S (printed MDA-MD-435S) cell extract
T1 sequence (P06756 31-889 limits assumed): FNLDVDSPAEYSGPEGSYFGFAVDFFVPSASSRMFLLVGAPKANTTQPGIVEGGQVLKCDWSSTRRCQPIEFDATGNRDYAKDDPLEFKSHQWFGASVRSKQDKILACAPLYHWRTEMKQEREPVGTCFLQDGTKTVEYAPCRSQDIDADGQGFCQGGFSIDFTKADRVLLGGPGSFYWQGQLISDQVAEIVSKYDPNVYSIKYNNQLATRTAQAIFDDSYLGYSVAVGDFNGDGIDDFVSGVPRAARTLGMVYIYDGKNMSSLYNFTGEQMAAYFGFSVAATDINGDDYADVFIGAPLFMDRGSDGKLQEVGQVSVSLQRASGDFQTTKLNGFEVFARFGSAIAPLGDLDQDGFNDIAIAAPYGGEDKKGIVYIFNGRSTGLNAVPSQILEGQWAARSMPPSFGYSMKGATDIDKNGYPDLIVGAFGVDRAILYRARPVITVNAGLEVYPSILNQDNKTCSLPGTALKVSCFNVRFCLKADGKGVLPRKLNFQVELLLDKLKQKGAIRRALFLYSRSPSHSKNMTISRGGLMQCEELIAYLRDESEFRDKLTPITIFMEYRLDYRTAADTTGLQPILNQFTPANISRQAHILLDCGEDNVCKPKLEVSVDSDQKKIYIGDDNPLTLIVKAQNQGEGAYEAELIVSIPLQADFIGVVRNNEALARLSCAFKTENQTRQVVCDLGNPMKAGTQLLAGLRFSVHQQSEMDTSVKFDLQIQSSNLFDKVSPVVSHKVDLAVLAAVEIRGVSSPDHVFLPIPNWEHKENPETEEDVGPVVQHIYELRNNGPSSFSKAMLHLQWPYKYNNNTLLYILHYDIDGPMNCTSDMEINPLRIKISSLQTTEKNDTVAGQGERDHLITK
T1 sequence (P06756 891-1048 partner limits assumed): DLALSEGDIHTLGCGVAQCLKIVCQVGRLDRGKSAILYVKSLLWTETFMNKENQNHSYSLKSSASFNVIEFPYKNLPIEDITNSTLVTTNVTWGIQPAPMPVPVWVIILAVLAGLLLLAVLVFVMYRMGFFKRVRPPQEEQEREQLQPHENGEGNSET
T1 sequence (P05106 27-788): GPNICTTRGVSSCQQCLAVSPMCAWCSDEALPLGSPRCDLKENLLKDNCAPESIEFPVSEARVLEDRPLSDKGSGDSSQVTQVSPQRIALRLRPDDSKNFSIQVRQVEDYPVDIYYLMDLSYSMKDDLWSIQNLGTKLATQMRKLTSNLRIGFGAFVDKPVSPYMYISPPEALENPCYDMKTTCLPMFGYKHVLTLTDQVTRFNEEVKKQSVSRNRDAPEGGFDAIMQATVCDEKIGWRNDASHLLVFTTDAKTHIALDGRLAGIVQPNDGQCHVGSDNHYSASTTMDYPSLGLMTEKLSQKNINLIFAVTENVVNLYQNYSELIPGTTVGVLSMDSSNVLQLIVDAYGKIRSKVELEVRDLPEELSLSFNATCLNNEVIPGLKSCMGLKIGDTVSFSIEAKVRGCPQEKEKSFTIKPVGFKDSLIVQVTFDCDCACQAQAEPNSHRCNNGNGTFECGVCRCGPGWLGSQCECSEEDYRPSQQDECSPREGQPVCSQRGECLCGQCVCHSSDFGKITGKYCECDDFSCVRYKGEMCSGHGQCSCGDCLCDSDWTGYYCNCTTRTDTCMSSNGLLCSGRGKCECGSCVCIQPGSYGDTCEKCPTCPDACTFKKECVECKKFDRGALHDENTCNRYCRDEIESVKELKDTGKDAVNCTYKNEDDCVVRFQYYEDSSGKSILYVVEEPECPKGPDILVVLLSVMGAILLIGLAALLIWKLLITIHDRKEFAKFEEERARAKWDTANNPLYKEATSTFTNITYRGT
Procedure: Lanes 3 and 6 each contained mixture of 300 μg MDA-MD435S cell extract and 1.2 μg of RGD-rHSA (wild type HSA). For the convenience of purification and detection, all rHSAs were fused with c-terminal c-myc and His6 tags. For lane 1, 2, and 3, the αvβ3 complexes were immunoprecipitated with anti-αv antibody (CHEMICON, AB1930). rHSAs associated with αvβ3 were detected by anti-c-myc antibody. […] For lane 4,5, and 6, the poly-HIS-tagged rHSAs were pulled down with Ni2+-charged chelating agarose. αvβ3 Associated with rHSAs was detected by anti-αv antibody (CHEMICON, AB 1930).

[4] = tested on: HeLa cells; assay: cellular uptake and/or binding of Rhodamine-labeled rHSAs, fluorescent microscopy; type: cell-based; details: 50 pmol labeled rHSA
Procedure: It has been reported that there is no αvβ3 type of integrin in HeLa cells. Nonetheless, HeLa cells are still able to bind fibronectin. Similar to the cellular uptake experiments for MDA-MB-435S cells, the fluorescent dye labeled rHSAs (50 pmol for rHSA, RGD-rHSA-FN and RGD-rHSA-4C) were added to cultured HeLa cells (with 250 μl EMEM in 24-well plate). Cellular uptake and/or binding was monitored at 1, 4, and 8 hours after washing with fresh non-labeled medium. Cellular uptake and/or binding of albumin was then visualized using fluorescent microscopy.

[5] = solubility of rHSA purified from Pichia pastoris expression system; type: physicochemical
Source text: We cloned, expressed and purified this rHSA from a Pichia pastoris yeast rHSA expression system. The protein was soluble and was purified to apparent homogeneity. We confirmed the identity of the purified protein by Western blotting using anti-HSA antibody and anti-c-Myc antibody. The alpha-v-beta-3 integrin binding ability of RGD-HSA was confirmed by co-immunoprecipitation and Western blotting.

[6] = target: HSA (Homo sapiens, UniProt P02768); details: 25 pmol peptide, 100 pmol defatted HSA, 15 minutes, room temperature
Source text: The reaction mixture was loaded to 0.5×TBE acrylamide gel and separated under 12 mA current.

Substance | transfection of HeLa cells [1] | esterase activity [2] | αvβ3 integrin binding ability / ability to interact [3] | effect of RGD sequence on albumin uptake and/or binding [4] | solubility of purified protein [5] | complex with HSA on gel [6]
unmodified peptides: peptide CHLDAHWKG (SEQ ID NO: 58) conjugated with fluorescein at Lys, without fatty acid (CHLDAHWK(fluorescein)G) [reference compound] | can not be observed | – | – | – | – | –
RGD-rHSA-FN: rHSA containing fibronectin RGD sequence (CGRGDSPC) in place of residues 53-62 of HSA | – | comparable | confirmed | mildly stimulated | soluble | –
fatty acid-conjugated faTraF peptide: fluorescein-labeled peptide CHLDAHWKG conjugated at Cys thiol with 16-methanethiosulfonyl hexadecanoic acid: HOOC—(CH2)15—S—S-peptide (not fully specified (residue 1); also: fluorescein-labeled (position not given here)) | transfected | – | – | – | – | clearly observed
